Laboratory results taken from publication PMC12646667, “Defective Notch1 signaling in endothelial cells drives pathogenesis in a mouse model of Adams-Oliver syndrome” (The Journal of Clinical Investigation, 2025).
Where “and” joins values, the source holds several entries; their conditions need not be identical. Identical values can stand only once.

Assays:
RBPJ R91G = RBPJ R91G (Mus musculus, UniProt P31266 53-474, R91G); assay: EMSA; 5, 25, 125 nM protein; ITC: 50 mM sodium phosphate pH 6.5, 150 mM NaCl, 10 C, DNA 100 uM in syringe, protein 10 uM in cell; EMSA: 20 min at room temperature, buffer as previously described (not given); settings: protein: recombinant; tags: GST-fusion vector pGEX-6P-1; label: 5' IRDye-700 on bottom strand; blunt; S3 primer annealed to S2 and filled in with DNA polymerase I
[1] = target: T1, mouse RBPJ S358R, conserved core (residues 53-474) (mouse, UniProt P31266 53-474, S358R); assay: ITC; MicroCal VP-ITC, 25 °C, 50 mM sodium phosphate pH 6.5, 150 mM NaCl; ligand (RAM peptide or SMT3-SHARP) in the syringe, RBPJ in the cell: 100 µM into 10 µM (R91G), 50 µM into 5 µM (F92V), 40 µM into 4 µM (S358R); 20 injections of 14 µL; 1-site binding model; mean and SD of triplicates; settings: both partners purified
T1 construct: RBPJ (Rbpj), mouse, conserved core, residues 53-474, with S358R; Variant found in human AOS patients (human S332R), put into the mouse protein by mutagenesis; also called analogous to human S332R; source: pGEX-6P-1 plasmid, QuikChange mutagenesis

[2] = target: T2, mouse RBPJ F92V, conserved core (residues 53-474) (mouse, UniProt P31266 53-474, F92V); assay: as above; settings: both partners purified
T2 construct: RBPJ (Rbpj), mouse, conserved core, residues 53-474, with F92V; Variant found in human AOS patients (human F66V), put into the mouse protein by mutagenesis; also called analogous to human F66V; source: pGEX-6P-1 plasmid, QuikChange mutagenesis

RBPJ 53-474, S358R [3] = target: T3, RBPJ 53-474, S358R (mouse, UniProt P31266 53-474, S358R); assay: ITC; MicroCal VP-ITC; NOTCH1 peptide or SMT3-SHARP in the syringe (40-100 uM), RBPJ in the cell (4-10 uM); 25 C (298 K); 50 mM sodium phosphate pH 6.5, 150 mM NaCl; 20 injections of 14 uL; 1-site binding model; each of three replicates printed on its own; settings: both partners purified
T3 construct: RBPJ, mouse, conserved core, residues 53-474, with S358R (analogous to the human AOS variant S332R); AOS-associated human variant placed in the mouse protein; also called RBPJ^S358R (human S332R)

[4] = target: T4, RBPJ 53-474 (WT mouse RBPJ, conserved core) (mouse, UniProt P31266 53-474); assay: as above; settings: both partners purified
T4 construct: RBPJ, mouse, conserved core (NTD, BTD, linker, CTD), residues 53-474; PDB 3BRG (RBPJ on DNA) was used for modelling only; also called WT RBPJ

RBPJ 53-474, F92V [5] = target: T5, RBPJ 53-474, F92V (mouse, UniProt P31266 53-474, F92V); assay: as above; settings: both partners purified
T5 construct: RBPJ, mouse, conserved core, residues 53-474, with F92V (analogous to the human AOS variant F66V); AOS-associated human variant placed in the mouse protein; also called RBPJ^F92V (human F66V)

RBPJ 53-474, K195E [6] = target: T6, RBPJ 53-474, K195E (mouse, UniProt P31266 53-474, K195E); assay: as above; settings: both partners purified
T6 construct: RBPJ, mouse, conserved core, residues 53-474, with K195E (analogous to the human AOS variant K169E); AOS-associated human variant placed in the mouse protein; also called RBPJ^K195E (human K169E)

RBPJ 53-474, E89G [7] = target: T7, RBPJ 53-474, E89G (mouse, UniProt P31266 53-474, E89G); assay: as above; settings: both partners purified
T7 construct: RBPJ, mouse, conserved core, residues 53-474, with E89G (analogous to the human AOS variant E63G); AOS-associated human variant placed in the mouse protein; also called RBPJ^E89G (human E63G)

[8] = target: T8, mouse RBPJ R91G, conserved core (residues 53-474) (mouse, UniProt P31266 53-474, R91G); assay: ITC; MicroCal VP-ITC, 25 °C, 50 mM sodium phosphate pH 6.5, 150 mM NaCl; ligand (RAM peptide or SMT3-SHARP) in the syringe, RBPJ in the cell: 100 µM into 10 µM (R91G), 50 µM into 5 µM (F92V), 40 µM into 4 µM (S358R); 20 injections of 14 µL; 1-site binding model; mean and SD of triplicates; settings: both partners purified
T8 construct: RBPJ (Rbpj), mouse, conserved core, residues 53-474, with R91G; Variant found in human AOS patients (human R65G), put into the mouse protein by mutagenesis; also called analogous to human R65G; source: pGEX-6P-1 plasmid, QuikChange mutagenesis

RBPJ 53-474, S358R [9] = target: T3, RBPJ 53-474, S358R; assay: ITC; MicroCal VP-ITC; NOTCH1 peptide or SMT3-SHARP in the syringe (40-100 uM), RBPJ in the cell (4-10 uM); 25 C (298 K); 50 mM sodium phosphate pH 6.5, 150 mM NaCl; 20 injections of 14 uL; 1-site binding model; each of three replicates printed on its own; settings: both partners purified; remark: listed apart in the source
[10] = target: T4, RBPJ 53-474 (WT mouse RBPJ, conserved …); assay: as above; settings: both partners purified; remark: listed apart in the source
RBPJ 53-474, F92V [11] = target: T5, RBPJ 53-474, F92V; assay: as above; settings: both partners purified; remark: listed apart in the source
RBPJ 53-474, R91G = target: T9, RBPJ 53-474, R91G (mouse, UniProt P31266 53-474, R91G); assay: as above; settings: both partners purified
T9 construct: RBPJ, mouse, conserved core, residues 53-474, with R91G (analogous to the human AOS variant R65G); AOS-associated human variant placed in the mouse protein; also called RBPJ^R91G (human R65G)

RBPJ 53-474, K195E [12] = target: T6, RBPJ 53-474, K195E; assay: as above; settings: both partners purified; remark: listed apart in the source
RBPJ 53-474, E89G [13] = target: T7, RBPJ 53-474, E89G; assay: as above; settings: both partners purified; remark: listed apart in the source

T5 sequence (P31266 53-474 F92V): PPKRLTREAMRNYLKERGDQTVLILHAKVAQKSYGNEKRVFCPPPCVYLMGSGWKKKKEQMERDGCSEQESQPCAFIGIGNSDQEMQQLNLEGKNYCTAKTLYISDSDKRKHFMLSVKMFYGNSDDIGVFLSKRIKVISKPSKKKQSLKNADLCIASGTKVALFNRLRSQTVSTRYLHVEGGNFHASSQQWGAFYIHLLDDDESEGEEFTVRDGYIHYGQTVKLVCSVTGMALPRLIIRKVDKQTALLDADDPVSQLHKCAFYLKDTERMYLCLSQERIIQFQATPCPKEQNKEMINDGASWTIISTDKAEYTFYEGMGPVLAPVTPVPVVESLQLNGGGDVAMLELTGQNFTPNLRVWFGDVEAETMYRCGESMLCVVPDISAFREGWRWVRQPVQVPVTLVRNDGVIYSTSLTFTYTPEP
T3 sequence (P31266 53-474 S358R): as the sequence (P31266 53-474 F92V) above, with V40F, S306R counted along it
T4 sequence (P31266 53-474): as the sequence (P31266 53-474 F92V) above, with V40F counted along it
T6 sequence (P31266 53-474 K195E): as the sequence (P31266 53-474 F92V) above, with V40F, K143E counted along it
T9 sequence (P31266 53-474 R91G): as the sequence (P31266 53-474 F92V) above, with R39G, V40F counted along it
T7 sequence (P31266 53-474 E89G): as the sequence (P31266 53-474 F92V) above, with E37G, V40F counted along it
T2 sequence (P31266 53-474 F92V): as the sequence (P31266 53-474 F92V) above
T1 sequence (P31266 53-474 S358R): as the sequence (P31266 53-474 F92V) above, with V40F, S306R counted along it
RBPJ R91G, sequence (P31266 53-474 R91G): as the sequence (P31266 53-474 F92V) above, with R39G, V40F counted along it
T8 sequence (P31266 53-474 R91G): as the sequence (P31266 53-474 F92V) above, with R39G, V40F counted along it

B1: EMSA probe 1xCSL (1016ic) (dsDNA)
DNA 1: CGAACGAGGCAAACCTAGGCTAGAGGCACCGTGGGAAACTAGTGCGGGCGTGGCT
DNA 2: AGCCACGCCCGCACTAGTTTCCCACGGTGCCTCTAGCCTAGGTTTGCCTCGTTCG
**Q.** Does B1 bind (RBPJ R91G)?
**A.** no binding

B2: SMT3-SHARP 2776-2833, fusion protein with the region of the human SHARP co-repressor that binds RBPJ (domain or fragment, UniProt Q96T58 2776-2833, looked up)
chain: RASANENSRFHPGSMPVIDDRPADAGSGAGLRVNTSEGVVLLSYSGQKTEGPQRISAK
notes: SHARP (SPEN), human, residues 2776-2833; not shown: SMT3, N-terminal, kept
**Q.** How did the Kd [1] turn out when B2 was run?
**A.** 7.9 nM

**Q.** What about the Kd [2] of the same binder?
**A.** 10.3 nM

B3: SMT3-MINT 2776-2833 (human SHARP residues 2776-2833 with N-terminal SMT3 and His tag) (domain or fragment, UniProt Q96T58 2776-2833, looked up)
chain: B2 chain
notes: SHARP (MINT), human, residues 2776-2833; not shown: SMT3, N-terminal, kept
**Q.** B3 was tested. Which Ka (RBPJ 53-474, S358R [3]) did it give?
**A.** 9.83e+07 M⁻¹ and 1.28e+08 M⁻¹ and 1.73e+08 M⁻¹

**Q.** What about the Kd (RBPJ 53-474, S358R [3]) of the same binder?
**A.** 10 nM and 7.8 nM and 6 nM

**Q.** And the “stoichiometry N” value (RBPJ 53-474, S358R [3])?
**A.** 0.89 and 1.02 and 1.08

**Q.** What about the “stoichiometry N” value [4] of the same binder?
**A.** 1.2 and 1 and 1.06

**Q.** What about the Ka (RBPJ 53-474, F92V [5]) of the same binder?
**A.** 8.9e+07 M⁻¹ (2×) and 1.2e+08 M⁻¹

**Q.** And the Kd (RBPJ 53-474, F92V [5])?
**A.** 11 nM and 11.3 nM and 9 nM

**Q.** What about the “stoichiometry N” value (RBPJ 53-474, F92V [5]) of the same binder?
**A.** 1.17 and 1.09 and 1.12

**Q.** And the Kd (RBPJ 53-474, K195E [6])?
**A.** 12 nM and 35 nM and 17 nM

**Q.** What about the “stoichiometry N” value (RBPJ 53-474, K195E [6]) of the same binder?
**A.** 0.94 and 0.84 and 0.95

**Q.** And the “stoichiometry N” value (RBPJ 53-474, E89G [7])?
**A.** 1.37 and 1.34 and 1.15

B4: RBPJ association module (RAM) domain peptide of the human Notch1 intracellular domain, residues 1754-1781 (peptide)
peptide: VLLSRKRRRQHGQLWFPEGFKVSEASKK
notes: NOTCH1, human, RAM domain of the intracellular domain, residues 1754-1781; also called NICD; NICD1; source: synthetic peptide
**Q.** With B4 as the binder, how does the Kd [1] read?
**A.** 13.3 nM

**Q.** What about the Kd [8] of the same binder?
**A.** 21.4 nM

**Q.** And the Kd [2]?
**A.** 11.5 nM

B5: human NOTCH1 peptide consisting of residues 1754-1781 (peptide, UniProt P46531 1754-1781, looked up)
peptide: VLLSRKRRRQHGQLWFPEGFKVSEASKK
notes: NOTCH1, human, RAM region, residues 1754-1781; also called hN1 RAM 1754-1781; NICD1
**Q.** What does the source list for B5?
**A.** stoichiometry N (RBPJ 53-474, S358R [9]): 0.86 and 0.72 and 0.77; Ka [10]: 5e+07 M⁻¹ (2×) and 4.4e+07 M⁻¹; Kd [10]: 20 nM and 22 nM; stoichiometry N [10]: 1.21 and 1.2 and 1.14; Ka (RBPJ 53-474, F92V [11]): 1.42e+08 M⁻¹ and 1.04e+08 M⁻¹ and 5.61e+07 M⁻¹; Kd (RBPJ 53-474, F92V [11]): 7 nM and 10 nM and 18 nM; stoichiometry N (RBPJ 53-474, F92V [11]): 0.85 and 0.75 and 0.63; Ka (RBPJ 53-474, R91G): 6.04e+07 M⁻¹ and 6.65e+07 M⁻¹ and 3.08e+07 M⁻¹; Kd (RBPJ 53-474, R91G): 17 nM and 15 nM and 32 nM; stoichiometry N (RBPJ 53-474, R91G): 1.06 and 1.03 and 0.92; Ka (RBPJ 53-474, K195E [12]): 7.46e+07 M⁻¹ and 3.08e+07 M⁻¹ and 4.69e+07 M⁻¹; Kd (RBPJ 53-474, K195E [12]): 13 nM and 32 nM and 21 nM; stoichiometry N (RBPJ 53-474, K195E [12]): 1.33 and 1.2 and 1.23; Ka (RBPJ 53-474, E89G [13]): 6.24e+07 M⁻¹ and 7.22e+07 M⁻¹ and 3.37e+07 M⁻¹; Kd (RBPJ 53-474, E89G [13]): 16 nM and 14 nM and 30 nM; stoichiometry N (RBPJ 53-474, E89G [13]): 0.84 and 0.73 and 1.32
